The target in experiment [1] is His6x-Lip-L2_(LRP6) (LRP6_(1539-1613)) (UniProt O75581). As to the kind of experiment: ITC; binding of GSK3 or Axin to the CPPSPYT element of the distal LRP6 ctail; constructs and concentrations not told.
The target in experiment [2] is LRP6-GFP (UniProt O75581). As to the kind of experiment: coIP (GFP IP, α-Axin1 blot densitometry). Particulars: co-expressed with wt GSK3β-HA.
The target of experiment [3] is LRP6-GFP (UniProt O75581). Description: coIP (GFP IP, α-HA blot densitometry).
For experiment [4], the target named is Axin1 LIRα, 345-361 (UniProt O15169). Description: ITC. As to conditions: reference: unphosphorylated 43mer peptide; sites S317,S321,S325.
The target of experiment [5] is His6x-Lip-A5_(Axin) (Axin_(308-366)) (UniProt O15169). Description: ITC; 50 μM Axin fragment or GSK3β titrated with 500 μM Lip-L1_(LRP6); 25 °C, 25 mM sodium phosphate pH 6.7, 150 mM NaCl; one set of binding sites; apparent KD assuming 1:1.
Experiment [6] deals with GSK3β-HA (UniProt P49841). As to the kind of experiment: coIP (GFP IP, α-HA blot densitometry).
In experiment [7] the target is FLAG-Axin1 (UniProt O15169). Description: coIP (GFP IP, α-FLAG blot densitometry). As to conditions: HEK293T cells, co-expressed with wt GSK3β-HA.
In experiment [8] the target is His6x-AP2μ (YxxΦ-binding domain of rat AP2μ) (rat). As to the kind of experiment: ITC; 114 or 100 μM His6x-AP2μ titrated with 2 mM (SYRHFA) or 1.74 mM (…) His6x-Lip-YxxΦ peptide; 25 °C, 50 mM Tris-HCl pH 7.4, 300 mM NaCl.
The target of experiment [9] is T1, His6x-Lip-L1_(LRP6) (LRP6_(1463-1538) bearing YYYF > A) (UniProt O75581 1463-1538, YYYF > A (Y1517; position worked out from S1516 and S1521, p-0048) | YYYF > A …, Lipoyl solubility tag omitted. Mutated positions are not given; inferred because LIRup (308-344) should contain exactly five Asp and one Glu, in the order D-E-D4, and the text says all …).
T1 sequence: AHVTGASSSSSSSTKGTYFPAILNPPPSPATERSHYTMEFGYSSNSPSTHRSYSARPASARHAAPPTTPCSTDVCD
Description: ITC.

The target in experiment [10] is T2, His6x-Lip-L1_(LRP6) (LRP6_(1463-1538) bearing YYYF > A) (UniProt O75581 1463-1538, YYYF > A (Y1517; position worked out from S1516 and S1521, p-0048) | YYYF > A …).
T2 sequence: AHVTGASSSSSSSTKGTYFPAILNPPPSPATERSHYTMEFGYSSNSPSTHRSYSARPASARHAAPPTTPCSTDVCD
As to the kind of experiment: ITC.

For experiment [11], the target named is T3, phosphorylated Axin LIRup peptide (43PPP, Axin_(308-351) including pS317, pS321, pS325) (UniProt O15169 308-351, phosphoserine at 317, 321 and 325).
T3 construct: Axin1 LIRup with 7 residues of LIRα; A308-Q351 counts 44 residues though the peptide is called 43PPP; source: synthetic peptide, bought: Biomatic
T3 peptide (looked up): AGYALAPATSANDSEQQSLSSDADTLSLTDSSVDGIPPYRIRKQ
Description: ITC; 50 μM synthetic 43mer or 43PPP peptide in the cell titrated with 500 μM wt or RKR mutant Axin Lip-LIRα; 25 °C, 25 mM sodium phosphate pH 6.7, 150 mM NaCl. Particulars: both partners purified.

Experiment [12] has as its target T4, GSK3β-K85R (recombinant, full-length) (UniProt P49841 1-420, K85R).
T4 construct: glycogen synthase kinase 3β, catalytically dead; also called catalytically-dead GSK3; source: E. coli BL21-CodonPlus(DE3)-RIL, purified (glutathione agarose, 3C cleavage, Superdex 200); not shown: GST, N-terminal, cleaved
As to the kind of experiment: NMR titration; BEST-TROSY peak height attenuation (bleaching): 80 μM 15N-labelled protein +/- 80 μM unlabelled partner; 25 mM sodium phosphate pH 6.7, 150 mM NaCl, 293 K. As to conditions: both partners purified.

In experiment [13] the target is T5, Axin Lip-LIRα (UniProt O15169 345-361).
T5 chain: PYRIRKQHRREMQESVQ
As to the kind of experiment: ITC; phosphorylated 43PPP.

Experiment [14] has as its target T6, RKR mutant Axin Lip-LIRα (UniProt O15169 345-361, RKR > A (R347) | RKR > A (K350) | RKR > A (R354)).
T6 chain: PYAIRAQHRAEMQESVQ
Description: ITC; phosphorylated 43PPP.

Setting [15] is: HEK293T cells, co-expressed with wt FLAG-Axin1.

These results are taken from publication PMC12095580, “Wnt signalosome assembly is governed by conformational flexibility of Axin and by the AP2 clathrin adaptor” (Nature Communications, 2025).

Non-standard residues stand in square brackets, D forms with d. No end group written: not given here. pS = N[C@@H](COP(=O)(O)O)C(=O)O; Lip = Lipoyl solubility tag; His6x = hexahistidine tag A value given as a limit tells only on which side of the number the result lay.

Sequence of LRP6-GFP (O75581 20-1613): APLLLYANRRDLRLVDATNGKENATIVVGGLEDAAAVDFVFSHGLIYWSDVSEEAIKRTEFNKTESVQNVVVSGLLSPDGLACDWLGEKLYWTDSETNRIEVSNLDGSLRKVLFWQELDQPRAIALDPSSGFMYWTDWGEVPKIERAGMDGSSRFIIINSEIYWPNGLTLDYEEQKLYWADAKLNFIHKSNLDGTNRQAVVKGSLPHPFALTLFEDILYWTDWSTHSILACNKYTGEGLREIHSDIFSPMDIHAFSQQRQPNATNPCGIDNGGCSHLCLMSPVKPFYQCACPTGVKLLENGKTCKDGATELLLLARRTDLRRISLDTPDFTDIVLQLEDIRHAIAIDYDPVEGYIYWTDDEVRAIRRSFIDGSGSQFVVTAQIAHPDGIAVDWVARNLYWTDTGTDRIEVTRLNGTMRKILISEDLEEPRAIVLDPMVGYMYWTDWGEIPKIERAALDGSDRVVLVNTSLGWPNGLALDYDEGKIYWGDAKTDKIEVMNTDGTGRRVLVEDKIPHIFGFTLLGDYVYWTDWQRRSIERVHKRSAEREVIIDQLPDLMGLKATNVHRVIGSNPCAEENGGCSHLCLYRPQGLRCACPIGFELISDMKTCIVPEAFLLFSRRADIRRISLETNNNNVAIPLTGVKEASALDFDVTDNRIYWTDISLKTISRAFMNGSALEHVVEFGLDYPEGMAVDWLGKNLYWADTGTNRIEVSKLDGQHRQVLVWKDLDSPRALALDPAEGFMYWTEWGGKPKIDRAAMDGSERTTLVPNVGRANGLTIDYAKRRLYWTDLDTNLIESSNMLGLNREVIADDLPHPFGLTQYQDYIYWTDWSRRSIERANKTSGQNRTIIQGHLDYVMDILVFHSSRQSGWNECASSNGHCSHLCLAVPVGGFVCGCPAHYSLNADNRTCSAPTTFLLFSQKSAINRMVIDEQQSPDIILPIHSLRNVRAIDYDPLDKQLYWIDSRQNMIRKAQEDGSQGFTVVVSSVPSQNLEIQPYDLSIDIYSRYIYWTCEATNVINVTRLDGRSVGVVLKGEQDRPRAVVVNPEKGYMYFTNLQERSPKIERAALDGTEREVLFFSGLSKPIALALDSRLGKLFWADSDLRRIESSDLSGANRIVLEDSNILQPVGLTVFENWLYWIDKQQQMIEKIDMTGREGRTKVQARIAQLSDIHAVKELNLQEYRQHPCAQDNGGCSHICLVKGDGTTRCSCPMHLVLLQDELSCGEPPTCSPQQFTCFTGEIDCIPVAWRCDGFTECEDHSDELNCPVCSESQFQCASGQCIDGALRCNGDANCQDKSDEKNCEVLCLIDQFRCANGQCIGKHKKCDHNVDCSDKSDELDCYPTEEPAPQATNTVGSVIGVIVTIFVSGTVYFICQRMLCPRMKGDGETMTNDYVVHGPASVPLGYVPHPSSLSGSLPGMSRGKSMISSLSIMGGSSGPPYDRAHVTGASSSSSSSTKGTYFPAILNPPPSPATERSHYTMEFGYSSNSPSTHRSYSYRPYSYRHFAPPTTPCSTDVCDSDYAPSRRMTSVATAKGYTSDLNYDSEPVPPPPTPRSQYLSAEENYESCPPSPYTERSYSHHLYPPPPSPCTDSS
Sequence of His6x-Lip-L2_(LRP6) (LRP6_(1539-1613)) (O75581 1539-1613): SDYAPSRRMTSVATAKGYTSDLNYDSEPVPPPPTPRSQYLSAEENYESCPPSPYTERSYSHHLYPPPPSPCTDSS

“GSK3β (recombinant, full-length wt) (from UniProt P49841 1-420) (enzyme)” showed a Kd in [1] above 500 µM.
With “FLAG-Axin1 (from UniProt O15169) S493D; S497D”, in [2], the ratio to parent came to 0.56.
The same measure, in the same setting: the value for “FLAG-Axin1 (from UniProt O15169) S493A; S497A” was 1.57.
Turning to GSK3β-HA (from UniProt P49841) VE>GR, the ratio to parent in [3] (setting [15]) amounted to 0.05; in [3] (co-expressed with FLAG-Axin1 S1>A (the wt = 1.00 lane has wt Axin; wt GSK3β-HA with Axin S1>A reads 2.98)) it was 0.03.
Consider “Axin1 LIRup peptide, 308-351 (from UniProt O15169) 43PPP peptide (pS317, pS321, pS325)”, for which, in experiment [4], the “binding against the reference” value is on record as “stronger”.
For the molecule “His6x-Lip-L1_(LRP6) (LRP6_(1463-1538) bearing YYYF > A) (from UniProt O75581 1463-1538) (domain or fragment)”, the Kd in experiment [5] amounted to 1.37 µM.
With “LRP6-GFP (from UniProt O75581) m10 (PPPSPxS>PPPAPxA, motifs A-E)”, the ratio to parent in [6] (setting [15]) turned out to be 0.07; in [6] (co-expressed with FLAG-Axin1 S1>A (the wt = 1.00 lane has wt Axin)), 0.01; in experiment [7], 0.11.

B1: His6x-Lip-SYRHFA peptide (peptide)
chain: {His6x-Lip}-SYRHFA
On to B1, for which, in experiment [8], the Kd is 16.2 µM.

B2: Lip-DED4 > A (in Lip-A5_(Axin)) (domain or fragment)
chain: AGYALAPATSANASAQQSLSSAAATLSLTASSVAGIPPYRIRKQHRREMQESVQVNGRV
For B2, in experiment [9], the Kd came out at 118 µM.

B3: Lip-RKR > A (in Lip-A5_(Axin)) (domain or fragment)
chain: AGYALAPATSANDSEQQSLSSDADTLSLTDSSVDGIPPYAIRAQHRAEMQESVQVNGRV
For the molecule B3, in experiment [10], the Kd was determined as 5.15 µM.

B4: RKR mutant Axin Lip-LIRα (domain or fragment, UniProt O15169 345-361, looked up)
chain: PYAIRAQHRAEMQESVQ
notes: Axin1 LIRα with R347, K350, R354 changed to alanine; also called Lip-LIRα RKR > A; not shown: Lipoyl solubility tag (Lip), N-terminal, kept
Turning to B4, in experiment [11], the “fold reduction of binding against wt Lip-LIRα” value is around 10 x.

B5: His6x-Lip-… peptide (peptide)
chain: {His6x-Lip}-SYRPYSYRHFA
Turning to B5, the Kd in [8] came to 8 µM.

B6: His6x-Lip-A3_(Axin) (Axin_(308-426)) (domain or fragment, UniProt O15169 308-426, looked up)
chain: AGYALAPATSANDSEQQSLSSDADTLSLTDSSVDGIPPYRIRKQHRREMQESVQVNGRVPLPHIPRTYRVPKEVRVEPQKFAEELIHRLEAVQRTREAEEKLEERLKRVRMEEEGEDGD
notes: Axin1 fragment with LIR, PRTxR motif and GIR; source: E. coli BL21-CodonPlus(DE3)-RIL, purified (Ni-NTA, Superdex 75); 15N-labelled where observed by NMR; not shown: Lipoyl solubility tag (Lip), N-terminal, kept
The molecule B6 came in with a Kd in experiment [1] above 500 µM. In addition, the binding result in experiment [12] is “binds”.

B7: phosphorylated Axin LIRup peptide (43PPP, Axin_(308-351) including pS317, pS321, pS325) (peptide)
peptide: AGYALAPAT[pS]AND[pS]EQQ[pS]LSSDADTLSLTDSSVDGIPPYRIRKQ
With B7, the Kd was determined as 47.9 µM in experiment [13] and 448 µM in [14].
